Experimental data taken from patent US20260028403A1 (Zymeworks, published 2026).
Values belong to the binder of their own block, whether it stands above or below them.

Legend:
[1] = target: T1, Recombinant human/cynomolgus/rhesus macaque CD28 mouse IgG2a Fc fusion protein (Acro Biosystems) (human/cynomolgus/rhesus macaque, UniProt P10747 19-152); experiment: SPR Biacore T200, CD28-mIgG2a Fc on CM5, construct injected, 1:1 model;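 note: fc fusion captured by amine coupling, run at 25 °C in HEPES buffer pH 7.4, association 140-500 s then dissociation 600-1200 s, values averaged over three independent runs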
T1 construct: bought; also called huCD28
Description: All SPR binding experiments were carried out using a BiacoreT200 instrument at 25° C. with 10 mM HEPES, 150 mM NaCl, 3 mM EDTA, and 0.05% Tween 20 at pH 7.4. Recombinant human/cynomolgus/rhesus macaque CD28 mouse IgG2a Fc fusion protein (Acro Biosystems) was covalently immobilized on CM5 sensor chips by amine coupling. Purified antibody constructs to be tested were injected on the sensor chip at 30 μL/min for 140-500 s following a dissociation for 600-1200 s. Resultant kₒₙ, koff and KD values were determined from fitting the sensorgrams using the 1:1 binding model with reported values as the mean of three independent runs.

[2] = target: T2, Recombinant human CD3 epsilon/delta heterodimer, his tag protein (Acro Biosystems) (human, UniProt P07766 23-126; P04234 22-105); experiment: SPR Biacore T200, CD3 e/d-his on CM5, construct injected, 1:1 model;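 note: measured at 25 °C in HEPES-buffered saline with EDTA and Tween 20 at pH 7.4, values are means of three independent runs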
T2 construct: bought
Description: All SPR binding experiments were carried out using a BiacoreT200 instrument at 25° C. with 10 mM HEPES, 150 mM NaCl, 3 mM EDTA, and 0.05% Tween 20 at pH 7.4. Recombinant human CD3 epsilon/delta heterodimer, his tag protein (Acro Biosystems) was covalently immobilized on CM5 sensor chips by amine coupling. Purified antibody constructs to be tested were indirectly captured on the sensor chip by binding to the recombinant CD3 protein when injected at 30 μL/min for 140-500 s following a dissociation for 600-1200 s. Resultant kₒₙ, koff and KD values were determined from fitting the sensorgrams using the 1:1 binding model with reported values as the mean of three independent runs.

Kd [1]: 25.1 nM | koff [1]: 0.00224 s⁻¹ | kon [1]: 89400 M⁻¹ s⁻¹
B1: v37665 (bispecific antibody, human IgG1, kappa, L234A L235A)
heavy 1: not shown
heavy 2: QVQLVESGGGLVQPGGSLRLSCSVSGIDLSSNPMIWVRQAPGKGLQYIGIIDTDGSTYYADWAKGRFTISKDSTTVYLQINSPRAEDTAVYYCARRLHGSSNGYYDDLWGQGTLVTVSSGGGGSGGGGSGGGGSGGGGSDGQMTQSPSSVSASVGDRVTITCQASQSIYSYLSWYQQKPGQRPKLLIYKASTLASGVPSRFSGSGSGTDFTLTISSVQPEDFATYYCQQGYTVTNVDKNTFGGGTKVEIKAAEPKSSDKTHTCPPCPAPEAAGGPSVFLFPPKPKDTLMISRTPEVTCVVVSVSHEDPEVKFNWYVDGVEVHNAKTKPREEQYNSTYRVVSVLTVLHQDWLNGKEYKCKVSNKALPAPIEKTISKAKGQPREPQVYVLPPSRDELTKNQVSLLCLVKGFYPSDIAVEWESNGQPENNYLTWPPVLDSDGSFFLYSKLTVDKSRWQQGNVFSCSVMHEALHNHYTQKSLSLSPG
light: DIQMTQSPSSLSASVGDRVTITCRASESVEYYVTSLMQWYQQKPGKAPKLLIYAASNVDSGVPSRFSGSGSGTDFTLTISSLQPEDIATYYCQQSRKVPFTFGGGTKVEIKRTVAAPSVFIFPPSDEQLKSGTASVVCLLNNFYPREAKVQWKVDNALQSGNSQESVTEQDSKDSTYSLSSTLTLSKADYEKHKVYACEVTHQGLSSPVTKSFNRGEC
notes: 13B08 VH-VL scFv); also called anti-(CLDN18.2xCD28) bispecific control

Kd [2]: 4.38 nM | koff [2]: 0.00255 s⁻¹ | kon [2]: 589000 M⁻¹ s⁻¹
B2: v37669 (bispecific antibody)
heavy 1: EVQLVESGGGLVQPGGSLRLSCAASGVTFNYYGMSWIRQAPGKGLEWVASITSSGGRIYYPDSVKGRFTISRENTQKTLYLQMNSLRAEDTAVYYCTLDGRDGWVAYWGQGTLVTVSSASTKGPSVFPLAPSSKSTSGGTAALGCLVKDYFPEPVTVSWNSGALTSGVHTFPAVLQSSGLYSLSSVVTVPSSSLGTQTYICNVNHKPSNTKVDKKVEPKSCDKTHTCPPCPAPEAAGGPSVFLFPPKPKDTLMISRTPEVTCVVVSVSHEDPEVKFNWYVDGVEVHNAKTKPREEQYNSTYRVVSVLTVLHQDWLNGKEYKCKVSNKALPAPIEKTISKAKGQPREPQVYVYPPSRDELTKNQVSLTCLVKGFYPSDIAVEWESNGQPENNYKTTPPVLDSDGSFALVSKLTVDKSRWQQGNVFSCSVMHEALHNHYTQKSLSLSPGGGGGSGNFMLTQPHSVSESPGKTVTISCKRNTGNIGSNYVNWYQQHEGSSPTTIIYRNDKRPDGVSDRFSGSIDRSSKSASLTISNLKTEDEADYFCQSYSSGFIFGGGTKLTVLGGGGSGGGGSGGGGSGGGGSEVQLVESGGGLVQPGGSLRLSCAASGVTFNYYGMSWIRQAPGKGLEWVASITSSGGRIYYPDSVKGRFTISRENTQKTLYLQMNSLRAEDTAVYYCTLDGRDGWVAYWGQGTLVTVSS
heavy 2: B1 heavy 2
light: NFMLTQPHSVSESPGKTVTISCKRNTGNIGSNYVNWYQQHEGSSPTTIIYRNDKRPDGVSDRFSGSIDRSSKSASLTISNLKTEDEADYFCQSYSSGFIFGGGTKLTVLGQPKAAPSVTLFPPSSEELQANKATLVCLISDFYPGAVTVAWKADSSPVKAGVETTTPSKQSNNKYAASSYLSLTPEQWKSHRSYSCQVTHEGSTVEKTVAPTECS
notes: bivalent for CD3; also called 2x1 anti-(CD3xCD3xCLDN18.2) control

Kd [2]: 5.93 nM | koff [2]: 0.00778 s⁻¹ | kon [2]: 1.28e+06 M⁻¹ s⁻¹
B3: v37667 (bispecific antibody)
heavy 1: not shown
heavy 2: B1 heavy 2
light: B2 light
notes: as for B2

Kd [1]: 32.4 nM | koff [1]: 0.00217 s⁻¹ | kon [1]: 67300 M⁻¹ s⁻¹
B4: v37666 (bispecific antibody, human IgG1, kappa, L234A L235A)
heavy 1: not shown
heavy 2: EPKSSDKTHTCPPCPAPEAAGGPSVFLFPPKPKDTLMISRTPEVTCVVVSVSHEDPEVKFNWYVDGVEVHNAKTKPREEQYNSTYRVVSVLTVLHQDWLNGKEYKCKVSNKALPAPIEKTISKAKGQPREPQVYVLPPSRDELTKNQVSLLCLVKGFYPSDIAVEWESNGQPENNYLTWPPVLDSDGSFFLYSKLTVDKSRWQQGNVFSCSVMHEALHNHYTQKSLSLSPG
light: B1 light
notes: Fc without paratope; also called anti-(CLDN18.2xCD28) bispecific control
